Literature values as cited in paper PMC5399307.

Target: ezrin FERM (Homo sapiens) (UniProt P15311)
UniProt P15311, sequence (P15311 1-299): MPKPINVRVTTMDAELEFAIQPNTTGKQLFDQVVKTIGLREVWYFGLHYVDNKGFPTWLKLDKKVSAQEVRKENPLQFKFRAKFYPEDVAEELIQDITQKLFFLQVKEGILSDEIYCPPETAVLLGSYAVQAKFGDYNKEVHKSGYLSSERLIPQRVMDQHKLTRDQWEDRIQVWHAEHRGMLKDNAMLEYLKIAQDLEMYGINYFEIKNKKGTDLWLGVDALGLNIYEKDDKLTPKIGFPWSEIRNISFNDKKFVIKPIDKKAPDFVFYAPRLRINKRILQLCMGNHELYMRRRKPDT

Kd: 51 nM
Substance: NHERF1 (from UniProt O14745)
